In patent publication US20180079808A1:

Tests used:
[1] = target: human IL-13 variant (R130Q) (human) (UniProt P35225); experiment: column 'Affinity, KD (nM)', hIL-13v; method not given
[2] = target: cynomolgus monkey rIL-13 (cynomolgus monkey) (UniProt Q0PW92)
[3] = target: human IL-13 variant (R130Q) (human) (UniProt P35225)
[4] = target: human IL-13 wild type (human) (UniProt P35225)
[5] = target: human IL-13 wild type (human) (UniProt P35225); experiment: column 'Affinity, KD (nM)', hIL-13wt; method not given

human IL-13 variant (R130Q) (human), sequence (P35225 35-146 limits assumed, stated change not applied): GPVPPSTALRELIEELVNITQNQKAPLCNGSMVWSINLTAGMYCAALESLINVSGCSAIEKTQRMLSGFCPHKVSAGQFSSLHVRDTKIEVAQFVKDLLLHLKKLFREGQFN
human IL-13 wild type (human), sequence (P35225 other isoform, or with tags, fused parts or gaps limits assumed): as the sequence (P35225 35-146 limits assumed, stated change not applied) above, with Q110R counted along it
cynomolgus monkey rIL-13 (cynomolgus monkey), sequence (Q0PW92 entry or part of it): as the sequence (P35225 35-146 limits assumed, stated change not applied) above, with G1S, R10K, M42V, S67N, H83R, L100V counted along it

B1: 13C5, murine version (antibody, from another filing, V domains shown)
VH: QVTLKESGPGILQPSQTLSLTCSFSGFSLSTSDMGVDWIRQPSGKGLEWLAHIWWDDVKRYNPALKSRLTISKDTSSSQVFLMLASVDTADTATYYCARTVSSGYIYYAMDYWGQGTSVTVSS
VL: DIQMTQTASSLSASLGDRVTISCRASQDIRNYLNWYQRKPDGTVKLLIFYTSKLHSGVPSRFSGSGSGTDYSLTIRNLEQEDIATYFCQQGNTLPLTFGGGTKLEIKR
Kd [1]: 76 pM | Potency, IC50 (neutralisation of Cyno IL-13; assay not given) [2]: 900 pM | Potency, IC50 (neutralisation of hIL-13v; assay not given) [3]: 170 pM | Potency, IC50 (neutralisation of hIL-13wt; assay not given) [4]: 190 pM | Kd [5]: 75 pM
